Here are results for 1 substance from patent US20220195052A1.

As a reminder, the IC50 is the midpoint of a concentration-inhibition curve. Higher therefore signals a need for much substance.

The assay addresses human αvβ1 integrin on cells (human) (UniProt P06756). Description: inhibition of adhesion of BCECF-labelled αvβ1-transfected cells to plate-coated LAP.

human αvβ1 integrin on cells (human), sequence (P06756 31-1048 limits assumed, chain 1 of 2): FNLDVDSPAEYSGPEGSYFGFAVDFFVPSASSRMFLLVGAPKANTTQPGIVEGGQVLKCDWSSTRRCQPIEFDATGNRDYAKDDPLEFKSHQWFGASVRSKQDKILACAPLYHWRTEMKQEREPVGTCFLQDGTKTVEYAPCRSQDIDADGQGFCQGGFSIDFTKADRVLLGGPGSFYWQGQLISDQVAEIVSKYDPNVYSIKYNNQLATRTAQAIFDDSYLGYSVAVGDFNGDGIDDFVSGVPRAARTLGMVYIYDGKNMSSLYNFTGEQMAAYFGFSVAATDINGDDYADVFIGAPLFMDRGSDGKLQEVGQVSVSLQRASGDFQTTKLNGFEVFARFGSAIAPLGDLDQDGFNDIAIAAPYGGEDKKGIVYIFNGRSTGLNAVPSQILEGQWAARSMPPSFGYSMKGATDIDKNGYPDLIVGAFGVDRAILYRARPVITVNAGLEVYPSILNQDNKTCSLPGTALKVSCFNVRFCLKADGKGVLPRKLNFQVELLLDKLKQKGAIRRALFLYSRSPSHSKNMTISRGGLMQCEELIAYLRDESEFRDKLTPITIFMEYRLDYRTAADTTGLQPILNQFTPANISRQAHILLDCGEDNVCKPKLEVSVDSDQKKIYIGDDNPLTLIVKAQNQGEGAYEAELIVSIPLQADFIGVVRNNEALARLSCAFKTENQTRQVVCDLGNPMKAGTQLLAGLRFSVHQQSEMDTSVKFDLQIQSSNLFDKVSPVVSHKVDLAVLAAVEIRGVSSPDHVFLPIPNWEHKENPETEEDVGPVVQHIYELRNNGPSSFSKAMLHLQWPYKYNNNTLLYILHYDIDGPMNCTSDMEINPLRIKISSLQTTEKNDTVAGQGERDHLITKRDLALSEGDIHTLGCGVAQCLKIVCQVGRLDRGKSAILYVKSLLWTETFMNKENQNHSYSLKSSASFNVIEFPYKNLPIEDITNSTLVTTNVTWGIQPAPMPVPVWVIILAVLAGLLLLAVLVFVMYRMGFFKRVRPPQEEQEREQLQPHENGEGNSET
human αvβ1 integrin on cells (human), sequence (chain, as listed by the source limits assumed, chain 2 of 2): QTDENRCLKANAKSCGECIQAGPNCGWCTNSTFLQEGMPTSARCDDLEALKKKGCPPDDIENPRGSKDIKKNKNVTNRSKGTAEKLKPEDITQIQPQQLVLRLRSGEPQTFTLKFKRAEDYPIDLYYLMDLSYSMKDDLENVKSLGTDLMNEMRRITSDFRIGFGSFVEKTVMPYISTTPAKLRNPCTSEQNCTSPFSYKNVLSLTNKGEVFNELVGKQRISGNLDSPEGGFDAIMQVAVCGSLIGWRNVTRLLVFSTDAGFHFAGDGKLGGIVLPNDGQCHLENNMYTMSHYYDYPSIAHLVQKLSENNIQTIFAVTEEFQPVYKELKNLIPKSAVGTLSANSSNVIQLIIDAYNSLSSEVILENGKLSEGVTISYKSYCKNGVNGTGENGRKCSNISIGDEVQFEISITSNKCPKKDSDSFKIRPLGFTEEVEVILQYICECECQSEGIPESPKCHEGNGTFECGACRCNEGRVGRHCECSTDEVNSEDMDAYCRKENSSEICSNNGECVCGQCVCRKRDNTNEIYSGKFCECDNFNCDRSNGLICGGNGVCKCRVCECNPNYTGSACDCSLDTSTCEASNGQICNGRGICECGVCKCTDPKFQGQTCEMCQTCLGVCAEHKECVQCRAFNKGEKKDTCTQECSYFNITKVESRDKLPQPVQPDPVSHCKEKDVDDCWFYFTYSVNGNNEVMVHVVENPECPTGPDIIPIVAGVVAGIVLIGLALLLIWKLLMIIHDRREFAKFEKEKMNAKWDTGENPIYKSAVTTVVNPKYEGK

Turning to L230 (pan-αv commercial antibody), the IC50 turned out to be 1 nM.
